Data: patent US5286847A, “Interleukin-1 muteins, their preparation and method of use to inhibit interleukin-1 activity” (New England Medical Center Hospitals, Inc., priority 1992, dated 1994)

Legend:
[1] = test system: helper T-cells (D10.G4.1); test: Biological activity: [3H]thymidine incorporation by helper T-cells (D10.G4.1) with diluted translation mixtures; format: cell-based; details: FIG. 2
Procedure: FIG. 2. Biological activities of IL-1β proteins. Reticulocyte translation mixtures were incubated and assayed in the thymocyte co-stimulation assay as described previously (Jobling et al., 1988). The results are presented as [^3 H]thymidine incorporation (counts/minute)at various final dilutions of the translation mixtures.
The IL-1β proteins were synthesized by in vitro translation of SP6 or T7 messenger RNAs. In vitro protein synthesis was performed as described previously (Jobling et al., 1988; Jobling, S. A., and L. Gehrke [1987] Nature 325:622-625). The translational efficiency of all construct mRNAs was increased by replacing the untranslated leader sequence of the IL-1β mRNA with that of alfalfa mosaic virus RNA (Jobling et al., 1988; Jobling et al., 1987). All IL-1β protein translation products contain the amino-terminal methionine residue added during initiation of protein synthesis. The biological activity of the translation products was tested by quantitating [^3 H]thymidine incorporation by helper T-cells (D10.G4.1) (Kaye, Y., S. Porcelli, J. Tite, B. Jones, C. A. Janeway [1983] J. Exp. Med. 158:836-856) incubated in the presence of diluted translation reaction mixtures (FIG. 2).

[2] = biological target: T1, EL4 cell receptors (IL-1 receptor) (Mus musculus, UniProt P13504); test: Competitive receptor binding against [35S]-labeled mature IL-1β on EL.4 thymoma cells; set-up: species or system murine; details: 37° C., concentrations up to a five-fold molar excess, FIG. 4
T1 construct: incubating EL.4 thymoma cells; endogenous in cells; host or cells: EL.4 thymoma cells
T1 sequence (P13504 20-576): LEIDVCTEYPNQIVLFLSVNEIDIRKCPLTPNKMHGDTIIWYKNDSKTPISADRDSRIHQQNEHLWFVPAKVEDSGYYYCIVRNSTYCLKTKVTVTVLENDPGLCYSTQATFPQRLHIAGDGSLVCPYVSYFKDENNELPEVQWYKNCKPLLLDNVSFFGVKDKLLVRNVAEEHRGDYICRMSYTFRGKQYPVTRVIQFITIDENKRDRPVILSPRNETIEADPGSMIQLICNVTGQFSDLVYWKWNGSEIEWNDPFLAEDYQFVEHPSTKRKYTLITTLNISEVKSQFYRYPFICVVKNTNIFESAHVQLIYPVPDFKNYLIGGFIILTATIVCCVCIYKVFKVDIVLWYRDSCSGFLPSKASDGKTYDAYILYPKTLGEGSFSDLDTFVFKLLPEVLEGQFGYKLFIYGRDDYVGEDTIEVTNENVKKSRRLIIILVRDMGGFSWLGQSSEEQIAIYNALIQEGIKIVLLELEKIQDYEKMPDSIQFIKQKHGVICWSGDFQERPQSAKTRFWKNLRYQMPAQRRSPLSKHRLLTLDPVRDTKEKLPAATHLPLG
Procedure: FIG. 4. Competitive receptor binding. A constant amount of radioactive mature IL-1β protein was added to 1.9×10^7 EL.4 cells in binding medium. The results are presented as a percentage of radioactive IL-1β which bound specifically in the absence of competitor. The 100% value represents approximately 30,000 cpm.
As a further analysis of the receptor binding properties, nonradioactive proteins were used to complete with [^35 S]-labeled wild-type mature IL-1β for binding to EL4 cell receptors (FIG. 4). Competitive receptor binding was performed by incubating EL.4 thymoma cells at 37° C. in the presence of a constant level of [^35 S]-labeled mature IL-1β protein and increasing concentrations of non-radioactiveIL-1β competitor translation products. […] The amount of IL-1β protein synthesized by in vitro translation was determined by specific radioactivity using a radioactive IL-1β protein standard which was quantitated by radioimmune assay. […] The cells were solubilized in lysis buffer (50 mM sodium phosphate, pH 7; 10 mM ethylenediaminetetraacetic acid (EDTA); 0.1% TRITON™ X-100; 0.1% sarkosyl; 10 mM β-mercaptoethanol) before quantitation of bound radioactivity by liquid scintillation counting. […]

[3] = biological target: T2, IL-1 receptor on EL.4 cells (Mus musculus, UniProt P13504); test: Equilibrium receptor binding of [35S]-labeled IL-1β peptides to EL.4 cells, Scatchard plot analysis; set-up: species or system murine; details: for receptor affinity compared with wild-type IL-1β (in words): equilibrium binding analyses and competitive binding studies
T2 construct: incubated with EL.4 cells; endogenous in cells; host or cells: EL.4 (murine thymoma)
T2 sequence (P13504 20-576): T1 sequence (P13504 20-576)
Procedure: The conversion of IL-1 molecules by mutation of specific residues gives muteins having utility as IL-1 biological activity inhibitors. Specifically disclosed is the preparation and testing of human IL-1β.
The receptor binding characteristics of the Arg127 →Gly127mutant protein were determined by Scatchard analysis and by sodium dodecyl sulfate (SDS) polyacrylamide gel analysis of specifically bound proteins (Dower et al., 1986; Jobling et al., 1988; Mosley et al., J. Biol. Chem. 1987). For the polyacrylamide gel analysis, IL-1β proteins were labeled with [^35 S]methionine during in vitro translation before cell surface receptor binding assays using EL4 6.1 C10 murine thymoma cells (Jobling et al., 1988; Mosley et al., Proc. Natl. Acad. Sci. USA, 1987; MacDonald, H. R., R. K. Lees, C. Bron [1985] J. Immunol. 135:3944) (FIG. 3). […] Equilibrium binding experiments and Scatchard plot data (Table 1) confirmed the equivalence of binding constants.

[4] = biological target: T3, cell surface receptor of EL4 6.1 C10 murine thymoma cells (Mus musculus, UniProt P13504); test: SDS polyacrylamide gel analysis of specifically bound [35S]-labeled IL-1β proteins; format: binding; details: FIG. 3
T3 construct: endogenous in cells; host or cells: EL4 6.1 C10 murine thymoma cells
T3 sequence (P13504 20-576): T1 sequence (P13504 20-576)
Procedure: FIG. 3. Analysis of receptor binding. [^35 S]-labeled IL-1β proteins were incubated at 4° C. with murine EL.4 cells in the absence (-) or presence (+) or nonradioactive competitor recombinant IL-1β protein. Following incubation, the cells were sedimented through silicone oil as described previously (Jobling et al., 1988). The IL-1β proteins are identified at the top of the figure by numbers corresponding to amino acid positions. IL1(1-269) is proIL-1β, while IL1(117-269) corresponds to the mature IL-1β protein. The "native" and "Gly127 " notations at the bottom of the figure refer to the wild-type mature protein (Arg127) and the Arg127 →Gly127 mutein, respectively.
The receptor binding characteristics of the Arg127 →Gly127mutant protein were determined by Scatchard analysis and by sodium dodecyl sulfate (SDS) polyacrylamide gel analysis of specifically bound proteins (Dower et al., 1986; Jobling et al., 1988; Mosley et al., J. Biol. Chem. 1987). For the polyacrylamide gel analysis, IL-1β proteins were labeled with [^35 S]methionine during in vitro translation before cell surface receptor binding assays using EL4 6.1 C10 murine thymoma cells (Jobling et al., 1988; Mosley et al., Proc. Natl. Acad. Sci. USA, 1987; MacDonald, H. R., R. K. Lees, C. Bron [1985] J. Immunol. 135:3944) (FIG. 3). […]

[5] = biological target: T2, IL-1 receptor on EL.4 cells; details: Jobling et al., 1988; cited from earlier work
[6] = literature (Huang et al. 1987; Jobling et al. 1988); cited from earlier work

Substance	biological activity (half maximal), fold less than wild-type mature IL-1β [1]	biological activity relative to that induced by mature IL-1β [1] [%]	half maximal biological activity compared with proIL-1β [1]	competition with [35S]-labeled wild-type mature IL-1β for binding (in words) [2]	Relative binding (receptor binding affinity in relation to mature wild-type IL-1β = 100%) ([3]; EL.4 cells, 4° C.) [%]	receptor affinity compared with wild-type IL-1β (in words) ([3]; listed as Arg127 →Gly127 mutant form of IL-1β)	receptor affinity compared with wild-type IL-1β (in words) ([3]; listed as Arg127 →Gly127 mutant protein)	receptor binding properties by intensity of bound protein bands, compared with native mature IL-1β [4]	affinity for receptor, fold less than that of mature IL-1β [5] [fold]	biological activity (in words) [6]
Arg127 →Gly127 mutant: human mature IL-1β mutein made by site-directed mutagenesis of the IL-1β cDNA converting Arg127 to Gly127	at least 100 fold	1	greater than that of proIL-1β	reproducibly competed more effectively than the wild-type mature IL-1β	107	equal affinity	indistinguishable from that of the wild-type IL-1β protein	similar	–	–
proIL-1β: human IL-1β 31,000 dalton precursor protein, 269 amino acids	–	–	–	competed minimally	–	–	–	–	30	relatively low, but distinct biological activity
